Source: patent publication US20150283275A1 (MorphoSys, published 2015)

What was measured:
[1] = molecular target: T1, Human CD38 (human, UniProt P28907 1-300); test: cell-based or functional assay
[2] = molecular target: T1, Human CD38; test: cell binding assay, apparently on OPM2 myeloma cells (method cited from Huber et al 2003)

γH2AX foci per cell (DNA double-strand breaks) 0.5 h after treatment, OPM2 cells compared to ARH77 cells [1] | EC50 [2] | Binder
~2.5 fold |  | ^213Bi-anti-CD38-MAb (antibody, V domains shown) VH: QVQLVESGGGLVQPGGSLRLSCAASGFTFSSYYMNWVRQAPGKGLEWVSGISGDPSNTYYADSVKGRFTISRDNSKNTLYLQMNSLRAEDTAVYYCARDLPLVYTGFAYWGQGTLVTVSS VL: DIELTQPPSVSVAPGQTARISCSGDNLRHYYVYWYQQKPGQAPVLVIYGDSKRPSGIPERFSGSNSGNTATLTISGTQAEDEADYYCQTYTGGASLVFGGGTKLTVLG
 | 16.4 nM | CHX-A″-DPTA-anti-CD38-MAb (antibody, V domains shown, Anti-CD38-MAb MOR03087 (= MOR202) covalently coupled to SCN-CHX-A″-DTPA; also called Chelated anti-CD38-MAb; CHX-A″-DTPA conjugate of MOR03087 (MOR202)) VH: QVQLVESGGGLVQPGGSLRLSCAASGFTFSSYYMNWVRQAPGKGLEWVSGISGDPSNTYYADSVKGRFTISRDNSKNTLYLQMNSLRAEDTAVYYCARDLPLVYTGFAYWGQGTLVTVSS VL: DIELTQPPSVSVAPGQTARISCSGDNLRHYYVYWYQQKPGQAPVLVIYGDSKRPSGIPERFSGSNSGNTATLTISGTQAEDEADYYCQTYTGGASLVFGGGTKLTVLG
